The source of these data is patent publication US6713276B2, “Modulation of Aβ levels by β-secretase BACE2” (Scios, Inc., priority 2000, dated 2004).

This test relates to APP751wt. Description: cell-free β-secretase assay, β-NTF ELISA, APP751wt substrate. The following applies: membrane extracts of transfected HEK293 cells, incubation up to 8 hours. It is filed as biochemical, human. Here is the method:
The β-secretase assay consists of two different parts, an incubation or reaction phase to generate β-NTF and an ELISA part to capture and measure the β-NTF generated by β-secretase. The β-secretase ELISA was performed as follows. Each well of a 96 well plate containing a flat bottom (high protein binding, Corning, N.Y.) was coated with 100 μl of the monoclonal capture antibody 8E5 (at ˜8-10 μg/ml) (Johnson-Wood et al. Proc. Natl. Acad. Sci. USA 94: 1550-1555 [1997]). The plate was then covered with parafilm and incubated overnight at 4° C. or alternatively for 2 hours at 37° C. […]
One hundred μl of a 1:5000 dilution of a goat anti rabbit IgG-HRP in Antibody-Conjugate Buffer was then added to each well, and the plate incubated at room temperature for one hour. […] After sufficient blue color had developed, the reactions were stopped by adding 100 μl of 5N H2SO4 to each well, and the amount of βNTF was determined by reading the plate at 450 nm in a Softmax spectrophotometer.
Equal amounts of membrane extracts from either mock, BACE or BACE2 transfected HEK293 cells were incubated with partially purified full length APP751 sw or APP751wt for the indicated times. The formation of β-NTF was then determined using the respective β-NTF specific ELISA as described in General Methodology.
In general terms: An ELISA detects its analyte on a solid surface through an enzyme-linked reagent.

B1: BACE2: human aspartyl protease, close homolog of BACE (SEQ ID NO: 2), expressed from pcDNA3.1(−)/BACE2 in transfected cells (protein)
chain: MGALARALLLPLLAQWLLRAAPELAPAPFTLPLRVAAATNRVVAPTPGPGTPAERHADGLALALEPALASPAGAANFLAMVDNLQGDSGRGYYLEMLIGTPPQKLQILVDTGSSNFAVAGTPHSYIDTYFDTERSSTYRSKGFDVTVKYTQGSWTGFVGEDLVTIPKGFNTSFLVNIATIFESENFFLPGIKWNGILGLAYATLAKPSSSLETFFDSLVTQANIPNVFSMQMCGAGLPVAGSGTNGGSLVLGGIEPSLYKGDIWYTPIKEEWYYQIEILKLEIGGQSLNLDCREYNADKAIVDSGTTLLRLPQKVFDAVVEAVARASLIPEFSDGFWTGSQLACWTNSETPWSYFPKISIYLRDENSSRSFRITILPQLYIQPMMGAGLNYECYRFGISPSTNALVIGATVMEGFYVIFDRAQKRVGFAASPCAEIAGAAVSEISGPFSTEDVASNCVPAQSLSEPILWIVSYALMSVCGAILLVLIVLLLLPFRCQRRPRDPEVVNDESSLVRHRWK
On to B1, for which the “β-NTF formation (β-secretase cleavage in vitro)” value is on record as “cleaved APP751wt to a similar extent as BACE”.
